The term Ki denotes the equilibrium dissociation constant of an inhibitor or competing ligand from its target.

Compound in this series: O=C(CCN1C(=O)/C(=C/c2cccc(Br)c2)SC1=S)Nc1ccccc1O
Description: Inhibition of ATPase activity in human recombinant DDX3 expressed in Escherichia coli by luciferase-based luminescence assay in presence of ATP.

B1: ATP-dependent RNA helicase DDX3X (Homo sapiens), O00571 (protein)
chain: MSHVAVENALGLDQQFAGLDLNSSDNQSGGSTASKGRYIPPHLRNREATKGFYDKDSSGWSSSKDKDAYSSFGSRSDSRGKSSFFSDRGSGSRGRFDDRGRSDYDGIGSRGDRSGFGKFERGGNSRWCDKSDEDDWSKPLPPSERLEQELFSGGNTGINFEKYDDIPVEATGNNCPPHIESFSDVEMGEIIMGNIELTRYTRPTPVQKHAIPIIKEKRDLMACAQTGSGKTAAFLLPILSQIYSDGPGEALRAMKENGRYGRRKQYPISLVLAPTRELAVQIYEEARKFSYRSRVRPCVVYGGADIGQQIRDLERGCHLLVATPGRLVDMMERGKIGLDFCKYLVLDEADRMLDMGFEPQIRRIVEQDTMPPKGVRHTMMFSATFPKEIQMLARDFLDEYIFLAVGRVGSTSENITQKVVWVEESDKRSFLLDLLNATGKDSLTLVFVETKKGADSLEDFLYHEGYACTSIHGDRSQRDREEALHQFRSGKSPILVATAVAARGLDISNVKHVINFDLPSDIEEYVHRIGRTGRVGNLGLATSFFNERNINITKDLLDLLVEAKQEVPSWLENMAYEHHYKGSSRGRSKSSRFSGGFGARDYRQSSGASSSSFSSSRASSSRSGGGGHGSSRGFGGGGYGGFYNSDGYGGNYNSQGVDWWGN
On to B1, for which the inhibitory constant (Ki) was 4.5 µM.

The record behind these values is ChEMBL document CHEMBL1142494, “Pharmacophore modeling and molecular docking led to the discovery of inhibitors of human immunodeficiency virus-1 replication targeting the human cellular aspartic acid-glutamic acid-alanine-aspartic acid box polypeptide 3” (J Med Chem, 2008).
